Test results as given in US20150140009A1.

Assays:
[1] = target: TNFR2/p75 on BM-derived EPCs of TNFR1/p55 knockout mice (mouse) (UniProt P25119); test: cell-based or functional assay
[2] = target: TNF-α in conditioned medium of 1 Gy γ-irradiated mouse BM-derived EPCs (IR-CM) (mouse) (UniProt P06804); test: cell-based or functional assay
UniProt P06804, sequence (P06804 80-235 limits assumed): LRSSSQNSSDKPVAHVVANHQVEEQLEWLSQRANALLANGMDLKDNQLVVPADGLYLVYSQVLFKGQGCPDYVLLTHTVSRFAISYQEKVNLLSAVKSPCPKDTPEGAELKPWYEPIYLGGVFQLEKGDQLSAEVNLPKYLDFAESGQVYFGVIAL

UniProt P25119, sequence (P25119 23-474): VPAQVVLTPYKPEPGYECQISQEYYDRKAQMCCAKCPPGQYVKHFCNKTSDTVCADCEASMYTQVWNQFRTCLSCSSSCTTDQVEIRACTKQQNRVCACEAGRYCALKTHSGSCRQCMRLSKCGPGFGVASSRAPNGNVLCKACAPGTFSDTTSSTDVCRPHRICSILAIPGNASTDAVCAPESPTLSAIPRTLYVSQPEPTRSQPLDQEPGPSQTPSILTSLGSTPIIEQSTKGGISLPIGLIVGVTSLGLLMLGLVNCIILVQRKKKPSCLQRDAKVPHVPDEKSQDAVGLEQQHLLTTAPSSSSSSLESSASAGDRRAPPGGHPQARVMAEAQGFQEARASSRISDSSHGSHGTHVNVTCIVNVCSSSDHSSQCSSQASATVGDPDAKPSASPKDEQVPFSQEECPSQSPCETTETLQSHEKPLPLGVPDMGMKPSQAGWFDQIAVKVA

mean p-H2AX foci/cell count, naïve p55KO EPCs, 24 h with TNF (100 pg/ml, 1, 40 ng/ml), all cells counted; control 0.98 [1] [foci/cell]	formation of p-H2AX foci in EPCs treated with γ-IR conditioned media after neutralizing TNF [2] [fold]	mean p-H2AX foci/cell, naïve WT EPCs, 24 h treatment with 3-day IR-CM treated with TNF-α neutralizing antibody [2] [foci/cell]	mean p-H2AX foci/cell, naïve WT EPCs, 24 h treatment with 5-day IR-CM treated with TNF-α neutralizing antibody [2] [foci/cell]	mean p-H2AX foci/cell, naïve WT EPCs, 24 h treatment with 1 h IR-CM treated with TNF-α neutralizing antibody [2] [foci/cell]	mean p-H2AX foci/cell, naïve WT EPCs, 24 h treatment with 5 h IR-CM treated with TNF-α neutralizing antibody [2] [foci/cell]	mean p-H2AX foci/cell, naïve WT EPCs, 24 h treatment with 24 h IR-CM treated with TNF-α neutralizing antibody [2] [foci/cell]	mean p-H2AX foci/cell, naïve p55KO EPCs, 24 h treatment with 3-day IR-CM treated with TNF-α neutralizing antibody [2] [foci/cell]	mean p-H2AX foci/cell, naïve p55KO EPCs, 24 h treatment with 5-day IR-CM treated with TNF-α neutralizing antibody [2] [foci/cell]	mean p-H2AX foci/cell, naïve p55KO EPCs, 24 h treatment with 1 h IR-CM treated with TNF-α neutralizing antibody [2] [foci/cell]	mean p-H2AX foci/cell, naïve p55KO EPCs, 24 h treatment with 5 h IR-CM treated with TNF-α neutralizing antibody [2] [foci/cell]	mean p-H2AX foci/cell, naïve p55KO EPCs, 24 h treatment with 24 h IR-CM treated with TNF-α neutralizing antibody [2] [foci/cell]	Substance
2.8 to 3.9												mouse recombinant TNF-α (Cat. 34-8321-82; eBiosciences) (from UniProt P06804 80-235) (ligand)
	2	3.2	3.5	2.4	4.3	5	4.9	3.5	3.7	3.6	4.2	TNF-α neutralizing antibody (Cat. 506309, BioLegend)
